Measured values taken from paper PMC4099074, “Palmitoylation of Gephyrin Controls Receptor Clustering and Plasticity of GABAergic Synapses” (PLoS Biology, 2014).
“And” between values parts separate entries of the source, which are not always exact repeats. Equal values may be shown once.

Molecular target: the molecule itself
Test: SEC; lysates of control and 2-BP-treated primary hippocampal neurons; fifteen fractions immunoblotted for gephyrin and PSD-95; reference proteins for size

B1: gephyrin, endogenous in primary hippocampal neurons (natural protein, UniProt Q8BUV3 1-769, looked up)
chain: MATEGMILTNHDHQIRVGVLTVSDSCFRNLAEDRSGINLKDLVQDPSLLGGTISAYKIVPDEIEEIKETLIDWCDEKELNLILTTGGTGFAPRDVTPEATKEVIEREAPGMALAMLMGSLNVTPLGMLSRPVCGIRGKTLIINLPGSKKGSQECFQFILPALPHAIDLLRDAIVKVKEVHDELEDLPSPPPPLSPPPTTSPHKQTEDKGVQCEEEEEEKKDSGVASTEDSSSSHITAAALAAKIPDSIISRGVQVLPRDTASLSTTPSESPRAQATSRLSTASCPTPKQIRRPDESKGVASRVGSLKARLPSCSSTYSVSEVQSRCSSKENILRASHSAVDITKVARRHRMSPFPLTSMDKAFITVLEMTPVLGTEIINYRDGMGRVLAQDVYAKDNLPPFPASVKDGYAVRAADGPGDRFIIGESQAGEQPTQTVMPGQVMRVTTGAPIPCGADAVVQVEDTELIRESDDGTEELEVRILVQARPGQDIRPIGHDIKRGECVLAKGTHMGPSEIGLLATVGVTEVEVNKFPVVAVMSTGNELLNPEDDLLPGKIRDSNRSTLLATIQEHGYPTINLGIVGDNPDDLLNALNEGISRADVIITSGGVSMGEKDYLKQVLDIDLHAQIHFGRVFMKPGLPTTFATLDIDGVRKIIFALPGNPVSAVVTCNLFVVPALRKMQGILDPRPTIIKARLSCDVKLDPRPEYHRCILTWHHQEPLPWAQSTGNQMSSRLMSMRSANGLLMLPPKTEQYVELHKGEVVDVMVIGRL
notes: gephyrin, endogenous; A fraction of it is palmitoylated on Cys212 and Cys284 (7.5% in mouse brain); also called native neuronal gephyrin; gephyrin (83 kDa); source: endogenous, lysates of primary hippocampal neurons (control and 2-BP-treated)
For B1, the “stoichiometry N” value was 6 and 9.
